Results on 2 molecules are retold here after patent publication US20180105585A1.

As a reminder, the IC50 is the concentration at which inhibition is half-maximal. As a reminder, the Kd is the equilibrium constant for the complex coming apart. A lower Kd goes with higher affinity. As a reminder, the koff is a measure of how fast the partners let go of each other. Read a low koff as a long-lived complex. Broadly, the kon is the rate constant with which the complex forms.

Changes are numbered by the printed parent chain.

The target in experiment [1] is Biotinylated human Amyloid beta 1-42 peptide (human). Put plainly: HTRF epitope competition, purified scFv against Abet0042 IgG (competitor) for biotinylated human Amyloid beta 1-42. (In general: In TR-FRET formats the signal depends on donor and acceptor labels being close together.)
Chain of Biotinylated human Amyloid beta 1-42 peptide (human) (peptide, as listed by the source): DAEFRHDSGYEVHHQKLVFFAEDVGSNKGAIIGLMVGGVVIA
For experiment [2] the target is unchanged. As to the kind of experiment: SPR (BIAcore T-100), biotinylated peptide on SA chip, scFv 12.5-400 nM, 1:1 Langmuir.

B1: Abet0007 scFv (scFv, part only; not given: Linker, tags and domain order, V domains shown, not shown: another chain or arm of the molecule; small tags and cut ends)
VH: EVQLLESGGGLVQPGGSLRLSCAASGFTFSVYTMWWVRQAPGKGLEWVSVIGSSGGTTVYADSVKGRFTISRDNSKNTLYLQMNSLRAEDTAVYYCAREGQQLVRPYYYYGMDVWGQGTLVTVSS
VL: QSVLTQPPSVSVSPGQTASITCSGHNLEDKFASWYQQKSGQSPVLVIYRDDKRPSGIPERFSASNSGHTATLTISGTQATDEADYYCQAQDSTTRVFGGGTKLTVL
For the molecule B1, the IC50 in experiment [1] was found to be 159 nM.

B2: Abet0144 scFv (scFv, part only; not given: Linker, tags and domain order, V domains shown, not shown: another chain or arm of the molecule; small tags and cut ends)
VH: B1 VH with G100W, Q101M, Q102D, L103H, V104S
VL: B1 VL
As for B2, in experiment [2], the Kd was 33.2 nM, the koff came out at 0.00666 s⁻¹ and the kon came to 201000 M⁻¹ s⁻¹. The same molecule showed an IC50 in experiment [1] of 5.5 nM.
